Holding throughout (assay): ELISA, coated antigen, antibody at 10 ng/ml
(ELISA stands for enzyme-linked immunosorbent assay.)

For one assay, the target named is T1, Nectin-like-4 (UniProt Q8NFZ8 21-324, limits assumed).
T1 construct: Bought recombinant protein; also called CADM4; IgSF4C
T1 sequence (looked up): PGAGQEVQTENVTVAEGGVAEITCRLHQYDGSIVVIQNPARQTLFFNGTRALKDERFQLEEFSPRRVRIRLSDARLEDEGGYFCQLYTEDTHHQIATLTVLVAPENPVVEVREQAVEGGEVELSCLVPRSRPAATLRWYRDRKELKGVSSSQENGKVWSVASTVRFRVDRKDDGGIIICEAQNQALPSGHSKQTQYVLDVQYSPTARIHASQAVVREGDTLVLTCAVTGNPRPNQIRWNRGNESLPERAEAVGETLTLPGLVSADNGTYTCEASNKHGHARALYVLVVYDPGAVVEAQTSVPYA
On the procedure:
(§1) Coating: Nectin-1, Nectin-2, Nectin-3, Nectin-4, Nectin-like-1, Nectin-like-2, Nectin-like-3, Nectin-like-4, and Nectin-like-5 were diluted to 5 μg/ml in coating buffer (carbonate buffer, pH 9.6) respectively. A 96-well plate was coat with 100 μl per well and incubated overnight at 2-8° C.;
(§2) Sample loading: The plate was taken out, patted dry, and washed twice with 200 μl/well of PBST, then patted dry. The Nectin-4 antibodies prepared in Example 1 (antibody MM11, antibody R012, and antibody R036) were diluted with 1% BSA/PBST to concentrations of 10 μg/ml, 1 μg/ml, 100 ng/ml, and 10 ng/ml, respectively. 1% BSA/PBST solution for dilution was set as a blank control. 100 μl per well was added to the 96-well plate, and incubated at room temperature for 2 hours;
(§3) Reaction termination and plate reading: 100 μl/well of 1 mol/L H3PO4 was added to terminate the reaction and the plated was read. The absorbances of wells in the plate at 450 nm with 650 nm as reference wavelength were read and recorded as OD_{450 nm-650 nm}.

For another assay, the target named is T2, Nectin-like-5 (UniProt P15151 21-343).
T2 construct: Bought recombinant protein; also called CD155; PVR
T2 sequence (looked up): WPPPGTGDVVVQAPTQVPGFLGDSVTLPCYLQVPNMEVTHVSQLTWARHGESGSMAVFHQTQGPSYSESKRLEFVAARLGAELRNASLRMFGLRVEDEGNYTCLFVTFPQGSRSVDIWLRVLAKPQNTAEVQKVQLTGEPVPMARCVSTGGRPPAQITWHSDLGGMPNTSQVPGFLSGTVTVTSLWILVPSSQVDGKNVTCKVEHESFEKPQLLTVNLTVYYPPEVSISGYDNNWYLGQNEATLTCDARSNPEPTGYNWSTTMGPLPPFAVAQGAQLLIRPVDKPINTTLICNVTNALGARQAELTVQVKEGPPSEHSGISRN
How it is done: as §1, §2, §3

Another assay has as its target T3, Nectin-3 (UniProt Q9NQS3 58-404, limits assumed).
T3 construct: Bought recombinant protein; also called CD113; PVRL-3
On the procedure: as §1, §2, §3

Assay [1] concerns the target T4, recombinant human Nectin-4 protein (human, UniProt Q96NY8 32-349).
T4 construct: Prepared in-house (Jiangsu Mabwell) by transient transfection of CHO cells; also called PVRL-4; PRR-4
T4 sequence: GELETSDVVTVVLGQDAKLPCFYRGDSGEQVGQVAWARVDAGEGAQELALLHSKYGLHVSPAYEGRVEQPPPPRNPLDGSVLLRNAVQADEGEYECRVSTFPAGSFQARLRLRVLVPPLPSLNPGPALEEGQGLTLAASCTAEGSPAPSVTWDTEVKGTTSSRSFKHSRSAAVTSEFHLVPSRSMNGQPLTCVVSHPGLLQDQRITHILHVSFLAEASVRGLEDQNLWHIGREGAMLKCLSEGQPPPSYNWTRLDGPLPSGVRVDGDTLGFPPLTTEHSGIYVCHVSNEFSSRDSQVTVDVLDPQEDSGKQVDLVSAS
How it is done: as §1, §2, §3

The target in the next assay is T5, Nectin-like-1 (UniProt Q8N126 25-330, limits assumed).
T5 construct: Bought recombinant protein; also called CADM3; IgSF4B
T5 sequence (looked up): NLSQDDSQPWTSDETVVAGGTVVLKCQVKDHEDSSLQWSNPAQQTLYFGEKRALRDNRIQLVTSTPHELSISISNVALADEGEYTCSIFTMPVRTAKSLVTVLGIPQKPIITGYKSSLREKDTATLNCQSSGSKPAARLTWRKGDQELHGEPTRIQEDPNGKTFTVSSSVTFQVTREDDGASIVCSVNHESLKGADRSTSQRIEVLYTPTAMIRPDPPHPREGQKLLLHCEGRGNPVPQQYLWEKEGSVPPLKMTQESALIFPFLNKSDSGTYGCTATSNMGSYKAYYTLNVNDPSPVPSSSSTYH
How it is done:
as §1, §2, §3

The next assay concerns the target T6, Nectin-like-3 (UniProt Q8N3J6 25-367, limits assumed).
T6 construct: Bought recombinant protein; also called CADM2; IgSF4D
T6 sequence (looked up): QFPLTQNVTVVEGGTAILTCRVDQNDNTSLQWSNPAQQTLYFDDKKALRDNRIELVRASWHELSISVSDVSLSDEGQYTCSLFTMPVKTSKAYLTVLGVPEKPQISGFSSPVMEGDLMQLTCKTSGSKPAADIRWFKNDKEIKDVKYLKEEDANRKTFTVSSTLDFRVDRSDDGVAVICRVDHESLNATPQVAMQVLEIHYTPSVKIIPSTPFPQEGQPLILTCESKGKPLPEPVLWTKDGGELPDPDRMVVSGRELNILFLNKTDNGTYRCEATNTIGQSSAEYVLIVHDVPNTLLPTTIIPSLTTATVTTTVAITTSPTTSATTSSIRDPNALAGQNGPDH
On the procedure:
as §1, §2, §3

The target in another assay is T7, Nectin-like-2 (UniProt Q9BY67 45-374, limits assumed).
T7 construct: Bought recombinant protein; also called CADM1; IgSF4
T7 sequence (looked up): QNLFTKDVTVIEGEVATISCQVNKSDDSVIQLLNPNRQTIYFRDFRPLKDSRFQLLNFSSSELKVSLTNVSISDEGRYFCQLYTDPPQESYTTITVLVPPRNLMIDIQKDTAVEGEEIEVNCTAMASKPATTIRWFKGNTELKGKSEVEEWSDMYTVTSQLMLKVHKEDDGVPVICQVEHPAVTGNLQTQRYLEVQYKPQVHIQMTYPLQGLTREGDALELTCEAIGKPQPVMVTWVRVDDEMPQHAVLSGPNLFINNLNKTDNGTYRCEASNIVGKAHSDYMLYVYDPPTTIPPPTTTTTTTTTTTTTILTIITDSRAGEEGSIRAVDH
How it is done:
as §1, §2, §3

T3 sequence (Q9NQS3 58-404 limits assumed): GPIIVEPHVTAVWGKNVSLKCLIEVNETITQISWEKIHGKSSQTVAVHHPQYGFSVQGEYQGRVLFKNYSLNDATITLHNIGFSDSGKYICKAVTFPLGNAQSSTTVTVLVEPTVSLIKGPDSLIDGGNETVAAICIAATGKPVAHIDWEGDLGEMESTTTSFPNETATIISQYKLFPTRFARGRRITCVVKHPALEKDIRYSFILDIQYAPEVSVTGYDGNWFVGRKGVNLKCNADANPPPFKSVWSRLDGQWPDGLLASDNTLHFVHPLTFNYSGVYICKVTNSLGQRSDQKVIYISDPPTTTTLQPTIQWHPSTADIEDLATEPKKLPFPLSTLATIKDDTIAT

B1: Antibody MM11 (antibody, mouse IgG1, kappa, V domains shown)
VH: DVQLQESGPGLVKPSQSLSLTCSVTGYSITSNFYWNWIRQFPGNRLEWMGYISYDGSNNYNPSLKNRISISRDTSKNQFFLKLNSVTTEDTATYYCVRADYWGQGTLVTVSA
VL: DTVMTQTPLSLPVSLGDQASISCRSSQSLESSDGHAYLNWYLQKPGQSPQLLIYRVSNRFSGVLHRFSGSGSGTDFTLKISRVEAEDLGVYFCLQFTHVPFTFGSGTKLEIKR
notes: Mouse monoclonal antibody from hybridoma; also called Nectin-4 mouse monoclonal antibody MM11; mouse antibody MM11
As to B1, the OD detection value with Nectin-like-4 was 0.004 OD450 nm-650 nm; with Nectin-like-5 it was 0.006 OD450 nm-650 nm; in the assay with Nectin-3, 0.006 OD450 nm-650 nm; in assay [1], 0.58 OD450 nm-650 nm; in the assay with Nectin-like-1, 0.006 OD450 nm-650 nm; with Nectin-like-3 it was 0.03 OD450 nm-650 nm. Further, in the assay with Nectin-like-2, the OD detection value amounted to 0.007 OD450 nm-650 nm.

B2: Antibody R012 (antibody, V domains shown)
VH: SKSVEESGGRLVTPGTPLTLTCTVSGFSLSTYAMSWVRQAPGKGLEYIGIISGRGTTYYASWLKGRFTISKTSTTVDLKITSPTTEDTATYFCARDAGISDVYTGYFNLWGQGTLVTVSS
VL: QPVLAQLPSASAALGASAKLTCTLSSAHRTYTIAWYQQQQGEAPRYLMMLKSDGSYTKGTGVPDRFSGSSSGADRYLIISSVQAADEADYYCGADDSGGYVFGGGTQLTVTG
notes: Rabbit monoclonal antibody from phage display; also called Nectin-4 rabbit monoclonal antibody R012; rabbit antibody R012
For the molecule B2, the OD detection value in the assay with Nectin-like-4 stood at 0.008 OD450 nm-650 nm; with Nectin-like-5 it was 0.009 OD450 nm-650 nm; in the assay with Nectin-3, 0.008 OD450 nm-650 nm; in assay [1], 0.748 OD450 nm-650 nm; in the assay with Nectin-like-1, 0.008 OD450 nm-650 nm; in the assay with Nectin-like-3, 0.009 OD450 nm-650 nm. Besides, the OD detection value in the assay with Nectin-like-2 amounted to 0.008 OD450 nm-650 nm.

B3: Antibody R036 (antibody, V domains shown)
VH: SQSVEESGGRLVTPGTPLTLTCTVSGFSLSSYAMSWVRQAPGKGLEYIGIIGGRGTTYYAIWAKGRFTISKTSTTVDLKITSPTTEDTATYFCARDAGTTYVGTTYVATGYFNLWGQGTLVTVSS
VL: QPVLTQPPSASAALGASAKLTCTLSSAHKTYTIAWYQQQQGEAPRYLMILKSDGSYTRGTGVPDRFSGSSSGADRYLIISSVQADDEADYYCGADDSGGYVFGGGTQLTVTG
notes: Rabbit monoclonal antibody from phage display; also called Nectin-4 rabbit monoclonal antibody R036; rabbit antibody R036
Take B3: the OD detection value came to 0.007 OD450 nm-650 nm with Nectin-like-4; 0.009 OD450 nm-650 nm with Nectin-like-5; 0.007 OD450 nm-650 nm in the assay with Nectin-3; 0.73 OD450 nm-650 nm in assay [1]; 0.007 OD450 nm-650 nm in the assay with Nectin-like-1; 0.008 OD450 nm-650 nm with Nectin-like-3. This molecule also had an OD detection value in the assay with Nectin-like-2 of 0.007 OD450 nm-650 nm.

The values are drawn from patent US20260265354A1 (JIANGSU MABWELL HEALTH PHARMACEUTICAL R AND D, published 2026).
